Results taken from article PMC7705225, “Hfq-Assisted RsmA Regulation Is Central to Pseudomonas aeruginosa Biofilm Polysaccharide PEL Expression”.

Biological target: RsmA (Pseudomonas aeruginosa PAO1, UniProt O69078 1-61)
Test: EMSA; without Hfq
Conditions: protein: recombinant; tags: His6 (C-terminal, RsmA-His6); chain copies: 2; label: none (SYBR Gold stain)

RsmA, sequence (O69078 whole entry): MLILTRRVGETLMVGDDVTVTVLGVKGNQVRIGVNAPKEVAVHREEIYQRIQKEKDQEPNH

B1: truncated vfr RNA (structured_RNA)
RNA: CUUUCGGGACUCGGGCAUGGUAGCUAUUACCCACACACCCAAACUCAAACACCUAGACAAGCUGCUCGCACACUGUCACCGCCGCCGCUACACCGCAAAGAGCACCAUCAUCUAUGCCGGCGAUCGCUGCGAU
  binding result: binds
